Experimental data published in publication PMC2553570.
Read-outs that look alike come from different tables or passages of the source.

What was measured:
Assay in all cases: EMSA
Ku70/80 wild-type [1] = molecular target: T1, Ku70/80 wild-type (human, UniProt P12956;P13010 1-609;1-732)
Ku70DM/80DM [2] = molecular target: T2, Ku70DM/80DM (human, UniProt P12956;P13010 1-609;1-732, K357A;K358A;K238A;K239A)
Ku70DM/80 [3] = molecular target: T3, Ku70DM/80 (human, UniProt P12956;P13010 1-609;1-732, K358A;Ku70:K357A)
Ku70/80TM [4] = molecular target: T4, Ku70/80TM (human, UniProt P12956;P13010 1-609;1-732, K238A;K239A;Ku80:K233A)
Ku70DM/80TM [5] = molecular target: T5, Ku70DM/80TM (human, UniProt P12956;P13010 1-609;1-732, K357A;K358A;K233A;K238A;K239A)
Ku70/80 wild-type [6] = molecular target: T1, Ku70/80 wild-type; remark: listed apart in the source
Ku70DM/80DM [7] = molecular target: T2, Ku70DM/80DM; remark: listed apart in the source
Ku70DM/80 [8] = molecular target: T3, Ku70DM/80; remark: listed apart in the source
Ku70/80DM = Ku70/80DM (human, UniProt P12956;P13010 1-609;1-732, K239A;Ku80:K238A)
Ku70/80TM [9] = molecular target: T4, Ku70/80TM; remark: listed apart in the source
Ku70DM/80TM [10] = molecular target: T5, Ku70DM/80TM; remark: listed apart in the source

Measured: binding result

T3 sequence (P12956 whole entry K358A, chain 1 of 2): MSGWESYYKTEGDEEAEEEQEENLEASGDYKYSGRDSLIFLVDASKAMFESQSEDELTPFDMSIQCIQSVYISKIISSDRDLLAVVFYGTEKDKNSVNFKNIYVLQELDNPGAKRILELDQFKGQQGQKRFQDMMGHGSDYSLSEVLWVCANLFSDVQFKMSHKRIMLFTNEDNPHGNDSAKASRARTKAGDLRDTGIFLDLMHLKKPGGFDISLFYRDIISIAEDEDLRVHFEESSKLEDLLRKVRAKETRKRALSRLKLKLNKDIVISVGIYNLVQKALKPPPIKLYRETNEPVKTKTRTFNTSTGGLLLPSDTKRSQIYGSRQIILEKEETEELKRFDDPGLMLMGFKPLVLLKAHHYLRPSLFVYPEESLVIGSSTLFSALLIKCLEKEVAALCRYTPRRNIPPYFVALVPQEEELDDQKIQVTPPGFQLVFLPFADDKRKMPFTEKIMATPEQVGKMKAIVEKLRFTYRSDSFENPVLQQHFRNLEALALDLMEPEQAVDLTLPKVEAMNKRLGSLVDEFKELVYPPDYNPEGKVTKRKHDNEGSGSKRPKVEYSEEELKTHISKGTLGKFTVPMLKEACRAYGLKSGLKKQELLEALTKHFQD
T3 sequence (P13010 whole entry, stated change not applied, chain 2 of 2): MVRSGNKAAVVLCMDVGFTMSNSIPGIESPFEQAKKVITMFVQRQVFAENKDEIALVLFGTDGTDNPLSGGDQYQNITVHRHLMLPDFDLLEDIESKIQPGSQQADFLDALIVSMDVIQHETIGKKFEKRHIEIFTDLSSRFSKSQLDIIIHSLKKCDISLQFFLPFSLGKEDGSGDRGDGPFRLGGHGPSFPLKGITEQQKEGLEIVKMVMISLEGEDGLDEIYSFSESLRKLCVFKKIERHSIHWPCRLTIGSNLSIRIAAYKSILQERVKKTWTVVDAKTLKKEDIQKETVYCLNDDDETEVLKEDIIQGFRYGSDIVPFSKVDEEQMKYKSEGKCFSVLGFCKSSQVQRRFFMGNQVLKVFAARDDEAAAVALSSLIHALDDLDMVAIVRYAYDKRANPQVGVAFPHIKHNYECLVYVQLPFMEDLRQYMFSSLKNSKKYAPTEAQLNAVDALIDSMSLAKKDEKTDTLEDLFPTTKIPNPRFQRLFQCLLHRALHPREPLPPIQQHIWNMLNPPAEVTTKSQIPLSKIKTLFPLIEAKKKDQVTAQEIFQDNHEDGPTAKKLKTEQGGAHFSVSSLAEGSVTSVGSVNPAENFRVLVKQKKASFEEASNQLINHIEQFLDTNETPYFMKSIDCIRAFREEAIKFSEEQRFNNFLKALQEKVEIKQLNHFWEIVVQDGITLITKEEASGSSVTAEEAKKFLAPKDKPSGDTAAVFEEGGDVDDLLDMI
T1 sequence (P12956 whole entry, chain 1 of 2): as the sequence (P12956 whole entry K358A, chain 1 of 2) above, with A358K counted along it
T1 sequence (P13010 whole entry, chain 2 of 2): as the sequence (P13010 whole entry, stated change not applied, chain 2 of 2) above
T4 sequence (P12956 whole entry, stated change not applied, chain 1 of 2): as the sequence (P12956 whole entry K358A, chain 1 of 2) above, with A358K counted along it
T4 sequence (P13010 whole entry K238A/K239A, chain 2 of 2): as the sequence (P13010 whole entry, stated change not applied, chain 2 of 2) above, with K238A, K239A counted along it
T2 sequence (P12956 whole entry K357A/K358A, chain 1 of 2): as the sequence (P12956 whole entry K358A, chain 1 of 2) above, with K357A counted along it
T2 sequence (P13010 whole entry K238A/K239A, chain 2 of 2): as the sequence (P13010 whole entry, stated change not applied, chain 2 of 2) above, with K238A, K239A counted along it
T5 sequence (P12956 whole entry K357A/K358A, chain 1 of 2): as the sequence (P12956 whole entry K358A, chain 1 of 2) above, with K357A counted along it
T5 sequence (P13010 whole entry K233A/K238A/K239A, chain 2 of 2): as the sequence (P13010 whole entry, stated change not applied, chain 2 of 2) above, with K233A, K238A, K239A counted along it
Chain of Ku70/80DM (P12956 whole entry, stated change not applied, chain 1 of 2): as the sequence (P12956 whole entry K358A, chain 1 of 2) above, with A358K counted along it
Chain of Ku70/80DM (P13010 whole entry K239A, chain 2 of 2): as the sequence (P13010 whole entry, stated change not applied, chain 2 of 2) above, with K239A counted along it

B1: one-Ku duplex with unpaired region (dsDNA)
DNA 1: GTTTTTAGTTTATTGGGCGCG
DNA 2: CGCGCCCAGCTTTCCCAGCTAATAAACTAAAAAC
binds: Ku70/80 wild-type [1] | Ku70DM/80DM [2] | Ku70DM/80 [3] | Ku70/80TM [4] | Ku70DM/80TM [5]

B2: 48-bp duplex (two-Ku) (dsDNA)
DNA 1: CTGAGAAAACTGTGCGTCTTCGCGGCAATTGAGAGGCATTCCATTCAC
DNA 2: GTGAATGGAATGCCTCTCAATTGCCGCGAAGACGCACAGTTTTCTCAG
binds: Ku70/80 wild-type [6] | Ku70DM/80DM [7] | Ku70DM/80 [8] | Ku70/80DM | Ku70/80TM [9] | Ku70DM/80TM [10]
